From paper PMC11468790, “New Bacterial Aryl Sulfotransferases: Effective Tools for Sulfation of Polyphenols” (Journal of Agricultural and Food Chemistry, 2024)

Substrate: O=[N+]([O-])c1ccc(OS(=O)(=O)O)cc1
Assay: purified protein
Type: biochemical, Escherichia coli
Conditions: varied donor pNPS 0.02-50 mM, acceptor phenol (5-200 mM), 30 °C, activity buffer Tris-glycine pH 8.9

B1: EcAST (Escherichia coli CFT073) (protein)
chain: AGFKPAPPAGQLGAVIVDPYGNAPLTALVDLDSHVISDVKVTVHGKGEKGVEISYPVGQESLKTYDGVPIFGLYQKFANKVTVEWKENGKVMKDDYVVHTSAIVNNYMDNRSISDLQQTKVIKVAPGFEDRLYLVNTHTFTAQGSDLHWHGEKDKNAGILDAGPATGALPFDIAPFTFIVDTEGEYRWWLDQDTFYDGRDRDINKRGYLMGIRETPRGTFTAVQGQHWYEFDMMGQVLEDHKLPRGFADATHESIETPNGTVLLRVGKSNYRRDDGVHVTTIRDHILEVDKSGRVVDVWDLTKILDPKRDALLGALDAGAVCVNVDLAHAGQQAKLEPDTPFGDALGVGPGRNWAHVNSIAYDAKDDSIILSSRHQGVVKIGRDKQVKWILAPSKGWEKPLASKLLKPVDANGKPITCNENGLCENSDFDFTYTQHTAWISSKGTLTIFDNGDGRHLEQPALPTMKYSRFVEYKIDEKKGTVQQVWEYGKERGYDFYSPITSIIEYQADRNTMFGFGGSIHLFDVGQPTVGKLNEIDYKTKEVKVEIDVLSDKPNQTHYRALLVRPQQMFK
notes: C-terminal His6 tag, pET-26b(+) NcoI/SacI, E. coli BL21(DE3)pLysS, IMAC, ca. 70 kDa
Km: 710 ± 30 µM | kcat: 41.1 ± 0.5 s⁻¹ | kcat/Km: 57000 M⁻¹ s⁻¹
